From US20040254347
“Also recorded” adds a separate entry of the source.

T1: Fusion Protein No:1 (GST fused with insert SEQ ID NO:2)
T1 chain: QIKS

T2: Fusion protein FP#2 (GST fused with insert SEQ ID NO:3)
T2 chain: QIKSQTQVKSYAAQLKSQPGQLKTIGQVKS

T3: Fusion protein FP#3 (GST fused with insert SEQ ID NO:4)
T3 chain: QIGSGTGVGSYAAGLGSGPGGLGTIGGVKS


Assays:
[1] = biological target: T1, Fusion Protein No:1 (GST fused with …)
[2] = biological target: T2, Fusion protein FP#2 (GST fused with …)
[3] = biological target: T3, Fusion protein FP#3 (GST fused with …)

Protein	cross-linking by transglutaminase, SDS-PAGE [1]	cross-linking by transglutaminase, SDS-PAGE [2]	cross-linking by transglutaminase, SDS-PAGE [3]
Thrombin-activated factor XIII (human blood factor XIII) (protein) GVNLQEFLNVTSVHLFKERWDTNKVDHHTDKYENNKLIVRRGQSFYVQIDFSRPYDPRRDLFRVEYVIGRYPQENKGTYIPVPIVSELQSGKWGAKIVMREDRSVRLSIQSSPKCIVGKFRMYVAVWTPYGVLRTSRNPETDTYILFNPWCEDDAVYLDNEKEREEYVLNDIGVIFYGEVNDIKTRSWSYGQFEDGILDTCLYVMDRAQMDLSGRGNPIKVSRVGSAMVNAKDDEGVLVGSWDNIYAYGVPPSAWTGSVDILLEYRSSENPVRYGQCWVFAGVFNTFLRCLGIPARIVTNYFSAHDNDANLQMDIFLEEDGNVNSKLTKDSVWNYHCWNEAWMTRPDLPVGFGGWQAVDSTPQENSDGMYRCGPASVQAIKHGHVCFQFDAPFVFAEVNSDLIYITAKKDGTHVVENVDATHIGKLIVTKQIGGDGMMDITDTYKFQEGQEEERLALETALMYGAKKPLNTEGVMKSRSNVDMDFEVENAVLGKDFKLSITFRNNSHNRYTITAYLSANITFYTGVPKAEFKKETFDVTLEPLSFKKEAVLIQAGEYMGQLLEQASLHFFVTARINETRDVLAKQKSTVLTIPEIIIKVRGTQVVGSDMTVTVEFTNPLKETLRNVWVHLDGPGVTRPMKKMFREIRPNSTVQWEEVCRPWVSGHRKLIASMSSDSLRHVYGELDVQIQRRPSM	FP#1, with the essential sequence of QXKS/T, is a good substrate of transglutaminases from different sources		
tissue transglutaminase from guinea pig's liver (protein) AEDLILERCDLQLEVNGRDHRTADLCRERLVLRRGQPFWLTLHFEGRGYEAGVDTLTFNAVTGPDPSEEAGTMARFSLSSAVEGGTWSASAVDQQDSTVSLLLSTPADAPIGLYRLSLEASTGYQGSSFVLGHFILLYNPRCPADAVYMDSDQERQEYVLTQQGFIYQGSAKFINGIPWNFGQFEDGILDICLMLLDTNPKFLKNAGQDCSRRSRPVYVGRVVSAMVNCNDDQGVLQGRWDNNYSDGVSPMSWIGSVDILRRWKDYGCQRVKYGQCWVFAAVACTVLRCLGIPTRVVTNFNSAHDQNSNLLIEYFRNESGEIEGNKSEMIWNFHCWVESWMTRPDLEPGYEGWQALDPTPQEKSEGTYCCGPVPVRAIKEGHLNVKYDAPFVFAEVNADVVNWIRQKDGSLRKSINHLVVGLKISTKSVGRDEREDITHTYKYPEGSEEEREAFVRANHLNKLATKEEAQEETGVAMRIRVGQNMTMGSDFDIFAYITNGTAESHECQLLLCARIVSYNGVLGPVCSTNDLLNLTLDPFSENSIPLHILYEKYGDYLTESNLIKVRGLLIEPAANSYVLAERDIYLENPEIKIRVLGEPKQNRKLIAEVSLKNPLPVPLLGCIFTVEGAGLTKDQKSVEVPDPVEAGEQAKVRVDLLPTEVGLHKLVVNFECDKLKAVKGYRNVIIGPA	FP#1 was cross-linked to a dimer by the enzyme reaction; also recorded: FP#1, with the essential sequence of QXKS/T, is a good substrate of transglutaminases from different sources	the enzyme-catalyzed cross-links of FP#2 were very striking ... There were almost no FP#2 monomer left after the enzyme reaction	the enzyme was able to cross-link FP#3
mouse coagulating gland transglutaminase (TG4) (protein) MDSRNVLIIYAVNVERKLNAAAHHTSEYQTKKLVLRRGQIFTLKVILNRPLQPQDELKVTFTSGQRDPPYMVELDPVTSYRSKGWQVKIAKQSGVEVILNVISAADAVVGRYKMRVNEYKAGVFYLLFNPWCSDDSVFMASEEERAEYILNDTGYMYMGFAKQIKEKPWTFGQFEKHILSCCFNLLFQLENNEMQNPVLVSRAICTMMCAANGGVLMGNWTGDYADGTAPYVWTSSVPILQQHYVTRMPVRYGQCWVFSGILTTALRAVGIPARSVTNFESAHDTEKNLTVDIYLDESGKTIPHLTKDSVWNFHVWTDAWMKRQDLPHGYDGWQVLDSTPQEISDGGFRTGPSPLTAIRQGLIQMKYDTTFVFTEVNGDKFIWLVKQNQEREKNILIAVETASLGKKISTKMVGENRREDITLQYRFPEGSPEERKVMAKASGKPSDDKLNSRTLNNSLQISVLQNSLELGAPIYLTITLKRKTATPQNVNISCSLNLQTYTGNKKTNLGVIQKTVQIHGQESRVFLTMDASYYIYKLGMVDDEMVIGGFIIAEIVDSGERVATDTTLCFLYSAFSVEMPSTGKVKQPLVITSKFTNTLPIPLTNIKFSVESLGLANMKSWEQETVPPGKTITFQMECTPVKAGPQKFIVKFISRQVKEVHAEKVVLISK	FP#1, with the essential sequence of QXKS/T, is a good substrate of transglutaminases from different sources		
